Earlier results on one substance are cited in PMC7106946.

As usually defined, the pKa is the pH at which an ionisable group is half protonated.

The target in this data set is Asp46 (UniProt position 303, VILFMDRNLEQ). The data set is described as follows: NMR.

“Hedgehog protein autoprocessing domain (HhC) Hint domain, wild type at position 46 (Drosophila melanogaster)”: the pKa is recorded as 5.8.
